Measured values: patent US20170129954A1 (PROTHENA BIOSCIENCES, published 2017)
Numbering of substitutions follows the chain as printed.

Legend:
[1] = biological target: T1, human MCAM C272A mutant (shotgun mutagenesis library, on BHK cells) (human, UniProt P43121 24-646); experiment: shotgun mutagenesis library, immunofluorescence on BHK cells, triplicate, background-subtracted and normalized to WT
T1 chain: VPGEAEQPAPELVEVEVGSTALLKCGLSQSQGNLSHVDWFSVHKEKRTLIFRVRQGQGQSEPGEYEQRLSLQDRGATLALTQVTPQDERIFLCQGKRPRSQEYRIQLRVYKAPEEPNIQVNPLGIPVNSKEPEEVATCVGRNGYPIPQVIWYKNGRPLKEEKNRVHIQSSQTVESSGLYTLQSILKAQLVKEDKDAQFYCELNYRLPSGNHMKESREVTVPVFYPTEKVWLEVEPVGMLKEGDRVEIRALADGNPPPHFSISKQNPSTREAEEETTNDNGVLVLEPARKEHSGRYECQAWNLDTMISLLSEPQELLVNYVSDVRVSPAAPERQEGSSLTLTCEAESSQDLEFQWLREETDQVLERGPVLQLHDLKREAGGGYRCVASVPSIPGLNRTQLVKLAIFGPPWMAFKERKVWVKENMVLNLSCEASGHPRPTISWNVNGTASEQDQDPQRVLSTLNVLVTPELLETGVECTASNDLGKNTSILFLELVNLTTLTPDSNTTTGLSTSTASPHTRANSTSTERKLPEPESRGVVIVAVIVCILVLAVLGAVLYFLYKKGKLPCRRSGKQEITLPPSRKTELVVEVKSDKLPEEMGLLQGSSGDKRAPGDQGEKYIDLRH
Experimental: (§1) The mutation library was assayed for surface expression (mouse sera binding) and monoclonal antibody binding, in triplicate. Each raw data point was background-subtracted and normalized to the wild type MCAM reactivity values. The mean monoclonal antibody binding value for each clone is plotted as a function of its mean surface expression value (FIG. 1, gray diamonds). Thresholds of <30% monoclonal antibody reactivity and >50% mouse sera binding were applied to identify clones (FIG. 1, black diamonds) that were negative for monoclonal antibody binding but positive for surface expression.
(§2) Residues involved in antibody binding were identified as those that were negative for monoclonal antibody binding (<30% WT) but positive for surface expression (>50% WT) (Table 4). The mean reactivity (and standard deviation) were determined for each critical residue.

[2] = biological target: T2, human MCAM Y318A mutant (shotgun mutagenesis library, on BHK cells) (human, UniProt P43121 24-646); experiment: as above
T2 chain: T1 chain with A249C, Y295A
Experimental: as §1, §2

[3] = biological target: T3, human MCAM C320A mutant (shotgun mutagenesis library, on BHK cells) (human, UniProt P43121 24-646); experiment: shotgun mutagenesis library, immunofluorescence on BHK cells, 0.5 µg/mL antibody
T3 chain: T1 chain with A249C, C297A
Experimental: (§3) Secondary antibodies from Jackson ImmunoResearch were used at 1:400 for MAb and sera detection.
as §1

[4] = biological target: T4, human MCAM V340A mutant (shotgun mutagenesis library, on BHK cells) (human, UniProt P43121 24-646); experiment: as above
T4 chain: T1 chain with A249C, V317A
Experimental: as §3, §1

B1: mouse anti-human MCAM monoclonal antibody clone 1749.1.3 (antibody, V domains shown)
VH: DVKLVESGGDLVKPGGSLKLSCAASGFTFSSYIMSWVRQTPEKRLEWVATISSGGSSTYYPDSVKGRFTISRDNAKNTLYLQMSSLKSEDTAMYYCTRDDDYDVKVFAYWGQGTLVTVSA
VL: DIVMSQSPSSLAVSAGEKVTMNCKSSRSLLNSRIRKNYLAWYQQKPGQSPKLLIYWASTRESGVPDRFTGSGSGTDFTLTISSVQAEDLAVYYCKQSYNLLTFGAGTKLELK
notes: Mouse hybridoma monoclonal antibody; also called m1749
- mean reactivity (% of wild type MCAM), standard deviation in brackets [1]: 7.6 % of WT
- mean reactivity (% of wild type MCAM), standard deviation in brackets [2]: 7.1 % of WT
- binding result [3]: no binding (tested: <30% WT)
- binding result [4]: no binding (tested: <30% WT)
